PMC13397619

B1: NLV3 TCR beta chain (CDR3β only) (parent)
chain: ASSPTGGSPSPLH
B2: NLV3 TCR beta chain (CDR3β only) (parent)
chain: ASSPTGGSPSPLH
partner: NLCPMVATV

Variants of: B1
Assay: T-Switch: Jurkat TCRβ−/− cells expressing a CDR3 saturation-mutagenesis library, stained with two peptide-HLA-A*02:01 tetramers (original and novel peptide) plus anti-CD3, FACS-sorted into four gates, gDNA sequenced
Details: with both tetramers (double-negative gate, binds neither): HLA-A*02:01 with … and with …, tetramers 1 µg/mL, 30 min on ice, SP, DP and SW gates expanded about 10 days between rounds ('two to three rounds of selection' in the Methods), gate DN: OPPOSITE: higher = more of the variant in the gate that binds neither peptide = LESS binding (or no expression; inferred). Fold enrichment of the CDR3 variant in one FACS gate of a two-tetram, unresolved parent, parent is a CDR3 fragment, scale: fold enrichment, numbering: sequential-on-construct, sequence starts at 1

Variant | enrichment
[…] (CDR3 as printed); T5Y derived by comparing it with the table's wild-type CDR3 ASSPTGGSPSPLH | 0.587
[…] (CDR3 as printed); T5R derived by comparing it with the table's wild-type CDR3 ASSPTGGSPSPLH | 1.07
[…] (CDR3 as printed); T5Q derived by comparing it with the table's wild-type CDR3 ASSPTGGSPSPLH | 1.16
[…] (CDR3 as printed); T5V derived by comparing it with the table's wild-type CDR3 ASSPTGGSPSPLH | 0.249
[…] (CDR3 as printed); T5S derived by comparing it with the table's wild-type CDR3 ASSPTGGSPSPLH | 0.633

Same assay, conditions: with both tetramers (double-positive gate): HLA-A*02:01 with … and with …, tetramers 1 µg/mL, 30 min on ice, SP, DP and SW gates expanded about 10 days between rounds ('two to three rounds of selection' in the Methods), gate DP: higher = more of the variant in the gate that binds both peptides. Fold enrichment of the CDR3 variant in one FACS gate of a two-tetramer stain. SP/DP/SW gates were expanded and re-sorted bef, unresolved parent, parent is a CDR3 fragment, scale: fold enrichment, numbering: sequential-on-construct, sequence starts at 1

Variant | enrichment
[…] (CDR3 as printed); T5Y derived by comparing it with the table's wild-type CDR3 ASSPTGGSPSPLH | 0
[…] (CDR3 as printed); T5R derived by comparing it with the table's wild-type CDR3 ASSPTGGSPSPLH | 0
[…] (CDR3 as printed); T5Q derived by comparing it with the table's wild-type CDR3 ASSPTGGSPSPLH | 0
[…] (CDR3 as printed); T5V derived by comparing it with the table's wild-type CDR3 ASSPTGGSPSPLH | 0
[…] (CDR3 as printed); T5S derived by comparing it with the table's wild-type CDR3 ASSPTGGSPSPLH | 0

Same assay, conditions: with both tetramers (double-negative gate, binds neither): HLA-A*02:01 with … and with …, tetramers 1 µg/mL, 30 min on ice, SP, DP and SW gates expanded about 10 days between rounds ('two to three rounds of selection' in the Methods), gate DN: OPPOSITE: higher = more of the variant in the gate that binds neither peptide = LESS binding (or no expression; inferred). Fold enrichment of the CDR3 variant in one FACS gate of a two-tetram, unresolved parent, parent is a CDR3 fragment, zero in all gates, scale: fold enrichment, numbering: sequential-on-construct, …

Variant | enrichment
[…] (CDR3 as printed); S2L derived by comparing it with the table's wild-type CDR3 ASSPTGGSPSPLH | 0
[…] (CDR3 as printed); G7P derived by comparing it with the table's wild-type CDR3 ASSPTGGSPSPLH | 0

Same assay, conditions: with both tetramers (double-positive gate): HLA-A*02:01 with … and with …, tetramers 1 µg/mL, 30 min on ice, SP, DP and SW gates expanded about 10 days between rounds ('two to three rounds of selection' in the Methods), gate DP: higher = more of the variant in the gate that binds both peptides. Fold enrichment of the CDR3 variant in one FACS gate of a two-tetramer stain. SP/DP/SW gates were expanded and re-sorted bef, unresolved parent, parent is a CDR3 fragment, zero in all gates, scale: fold enrichment, numbering: sequential-on-construct, sequence starts at 1

Variant | enrichment
[…] (CDR3 as printed); S2L derived by comparing it with the table's wild-type CDR3 ASSPTGGSPSPLH | 0
[…] (CDR3 as printed); G7P derived by comparing it with the table's wild-type CDR3 ASSPTGGSPSPLH | 0

Variants of: B2
Assay: as above
Details: with HLA-A*02:01 with peptide … (NLV 2-1, the novel peptide), tetramers 1 µg/mL, 30 min on ice, SP, DP and SW gates expanded about 10 days between rounds ('two to three rounds of selection' in the Methods), gate SW: higher = more of the variant in the gate that binds the novel peptide and not the original one = switched binding. Fold enrichment of the CDR3 variant in one FACS gate of a two-tetramer stain, unresolved parent, parent is a CDR3 fragment, scale: fold enrichment, numbering: sequential-on-construct, sequence starts at 1

Variant | enrichment
[…] (CDR3 as printed); G6C derived by comparing it with the table's wild-type CDR3 ASSPTGGSPSPLH | 0
[…] (CDR3 as printed); T5F derived by comparing it with the table's wild-type CDR3 ASSPTGGSPSPLH | 0
[…] (CDR3 as printed); S3Q derived by comparing it with the table's wild-type CDR3 ASSPTGGSPSPLH | 0
[…] (CDR3 as printed); G6Q derived by comparing it with the table's wild-type CDR3 ASSPTGGSPSPLH | 0
[…] (CDR3 as printed); S8F derived by comparing it with the table's wild-type CDR3 ASSPTGGSPSPLH | 0
[…] (CDR3 as printed); L12V derived by comparing it with the table's wild-type CDR3 ASSPTGGSPSPLH | 0
[…] (CDR3 as printed); H13C derived by comparing it with the table's wild-type CDR3 ASSPTGGSPSPLH | 0
[…] (CDR3 as printed); T5N derived by comparing it with the table's wild-type CDR3 ASSPTGGSPSPLH | 0
[…] (CDR3 as printed); P9G derived by comparing it with the table's wild-type CDR3 ASSPTGGSPSPLH | 0
[…] (CDR3 as printed); P9K derived by comparing it with the table's wild-type CDR3 ASSPTGGSPSPLH | 0
[…] (CDR3 as printed); G7Y derived by comparing it with the table's wild-type CDR3 ASSPTGGSPSPLH | 0
[…] (CDR3 as printed); P11Q derived by comparing it with the table's wild-type CDR3 ASSPTGGSPSPLH | 0
[…] (CDR3 as printed); L12N derived by comparing it with the table's wild-type CDR3 ASSPTGGSPSPLH | 0
[…] (CDR3 as printed); T5M derived by comparing it with the table's wild-type CDR3 ASSPTGGSPSPLH | 0
[…] (CDR3 as printed); S10K derived by comparing it with the table's wild-type CDR3 ASSPTGGSPSPLH | 0
[…] (CDR3 as printed); P11V derived by comparing it with the table's wild-type CDR3 ASSPTGGSPSPLH | 0
[…] (CDR3 as printed); P4K derived by comparing it with the table's wild-type CDR3 ASSPTGGSPSPLH | 0
[…] (CDR3 as printed); L12A derived by comparing it with the table's wild-type CDR3 ASSPTGGSPSPLH | 0
[…] (CDR3 as printed); A1G derived by comparing it with the table's wild-type CDR3 ASSPTGGSPSPLH | 0
[…] (CDR3 as printed); A1I derived by comparing it with the table's wild-type CDR3 ASSPTGGSPSPLH | 0
[…] (CDR3 as printed); S3A derived by comparing it with the table's wild-type CDR3 ASSPTGGSPSPLH | 0
[…] (CDR3 as printed); P4M derived by comparing it with the table's wild-type CDR3 ASSPTGGSPSPLH | 0
[…] (CDR3 as printed); G6P derived by comparing it with the table's wild-type CDR3 ASSPTGGSPSPLH | 0

Variant | enrichment
[…] (CDR3 as printed); H13S derived by comparing it with the table's wild-type CDR3 ASSPTGGSPSPLH | 0
[…] (CDR3 as printed); S8H derived by comparing it with the table's wild-type CDR3 ASSPTGGSPSPLH | 0
[…] (CDR3 as printed); S3E derived by comparing it with the table's wild-type CDR3 ASSPTGGSPSPLH | 0
[…] (CDR3 as printed); P4W derived by comparing it with the table's wild-type CDR3 ASSPTGGSPSPLH | 0
[…] (CDR3 as printed); L12D derived by comparing it with the table's wild-type CDR3 ASSPTGGSPSPLH | 0
[…] (CDR3 as printed); L12S derived by comparing it with the table's wild-type CDR3 ASSPTGGSPSPLH | 0
[…] (CDR3 as printed); A1D derived by comparing it with the table's wild-type CDR3 ASSPTGGSPSPLH | 0
[…] (CDR3 as printed); G6N derived by comparing it with the table's wild-type CDR3 ASSPTGGSPSPLH | 0
[…] (CDR3 as printed); A1V derived by comparing it with the table's wild-type CDR3 ASSPTGGSPSPLH | 0
[…] (CDR3 as printed); S2F derived by comparing it with the table's wild-type CDR3 ASSPTGGSPSPLH | 0
[…] (CDR3 as printed); A1N derived by comparing it with the table's wild-type CDR3 ASSPTGGSPSPLH | 0
[…] (CDR3 as printed); T5I derived by comparing it with the table's wild-type CDR3 ASSPTGGSPSPLH | 0
[…] (CDR3 as printed); H13D derived by comparing it with the table's wild-type CDR3 ASSPTGGSPSPLH | 0
[…] (CDR3 as printed); P4L derived by comparing it with the table's wild-type CDR3 ASSPTGGSPSPLH | 0
[…] (CDR3 as printed); G6V derived by comparing it with the table's wild-type CDR3 ASSPTGGSPSPLH | 0
[…] (CDR3 as printed); S10D derived by comparing it with the table's wild-type CDR3 ASSPTGGSPSPLH | 0
[…] (CDR3 as printed); P9Q derived by comparing it with the table's wild-type CDR3 ASSPTGGSPSPLH | 0
[…] (CDR3 as printed); H13K derived by comparing it with the table's wild-type CDR3 ASSPTGGSPSPLH | 0
[…] (CDR3 as printed); S8G derived by comparing it with the table's wild-type CDR3 ASSPTGGSPSPLH | 0
[…] (CDR3 as printed); P4F derived by comparing it with the table's wild-type CDR3 ASSPTGGSPSPLH | 0
[…] (CDR3 as printed); G6D derived by comparing it with the table's wild-type CDR3 ASSPTGGSPSPLH | 0
[…] (CDR3 as printed); G6H derived by comparing it with the table's wild-type CDR3 ASSPTGGSPSPLH | 0
[…] (CDR3 as printed); S10H derived by comparing it with the table's wild-type CDR3 ASSPTGGSPSPLH | 0

Variant | enrichment
[…] (CDR3 as printed); H13V derived by comparing it with the table's wild-type CDR3 ASSPTGGSPSPLH | 0
[…] (CDR3 as printed); T5D derived by comparing it with the table's wild-type CDR3 ASSPTGGSPSPLH | 0
[…] (CDR3 as printed); A1K derived by comparing it with the table's wild-type CDR3 ASSPTGGSPSPLH | 0
[…] (CDR3 as printed); P4S derived by comparing it with the table's wild-type CDR3 ASSPTGGSPSPLH | 0
[…] (CDR3 as printed); P9C derived by comparing it with the table's wild-type CDR3 ASSPTGGSPSPLH | 0
[…] (CDR3 as printed); A1R derived by comparing it with the table's wild-type CDR3 ASSPTGGSPSPLH | 0
[…] (CDR3 as printed); G7F derived by comparing it with the table's wild-type CDR3 ASSPTGGSPSPLH | 0
[…] (CDR3 as printed); G7S derived by comparing it with the table's wild-type CDR3 ASSPTGGSPSPLH | 0
[…] (CDR3 as printed); L12K derived by comparing it with the table's wild-type CDR3 ASSPTGGSPSPLH | 0
[…] (CDR3 as printed); P11Y derived by comparing it with the table's wild-type CDR3 ASSPTGGSPSPLH | 0
[…] (CDR3 as printed); H13L derived by comparing it with the table's wild-type CDR3 ASSPTGGSPSPLH | 0
[…] (CDR3 as printed); T5Q derived by comparing it with the table's wild-type CDR3 ASSPTGGSPSPLH | 0
[…] (CDR3 as printed); S2I derived by comparing it with the table's wild-type CDR3 ASSPTGGSPSPLH | 0
[…] (CDR3 as printed); G7C derived by comparing it with the table's wild-type CDR3 ASSPTGGSPSPLH | 0
[…] (CDR3 as printed); L12Q derived by comparing it with the table's wild-type CDR3 ASSPTGGSPSPLH | 0
[…] (CDR3 as printed); A1H derived by comparing it with the table's wild-type CDR3 ASSPTGGSPSPLH | 0
[…] (CDR3 as printed); P11I derived by comparing it with the table's wild-type CDR3 ASSPTGGSPSPLH | 0
[…] (CDR3 as printed); S3C derived by comparing it with the table's wild-type CDR3 ASSPTGGSPSPLH | 0
[…] (CDR3 as printed); G6Y derived by comparing it with the table's wild-type CDR3 ASSPTGGSPSPLH | 0
[…] (CDR3 as printed); T5K derived by comparing it with the table's wild-type CDR3 ASSPTGGSPSPLH | 0
[…] (CDR3 as printed); G7N derived by comparing it with the table's wild-type CDR3 ASSPTGGSPSPLH | 0
[…] (CDR3 as printed); T5L derived by comparing it with the table's wild-type CDR3 ASSPTGGSPSPLH | 0
[…] (CDR3 as printed); T5P derived by comparing it with the table's wild-type CDR3 ASSPTGGSPSPLH | 0

Same assay, conditions: with HLA-A*02:01 with peptide … (NLV 2-1, the novel peptide), tetramers 1 µg/mL, 30 min on ice, SP, DP and SW gates expanded about 10 days between rounds ('two to three rounds of selection' in the Methods), gate SW: higher = more of the variant in the gate that binds the novel peptide and not the original one = switched binding. Fold enrichment of the CDR3 variant in one FACS gate of a two-tetramer stain, unresolved parent, parent is a CDR3 fragment, zero in all gates, scale: fold enrichment, numbering: sequential-on-construct, …

Variant | enrichment
[…] (CDR3 as printed); S2L derived by comparing it with the table's wild-type CDR3 ASSPTGGSPSPLH | 0
